Assay results: IntAct's records for PubMed 31515488

B1: Heterogeneous nuclear ribonucleoprotein R (Homo sapiens), O43390 (parent)
chain: MANQVNGNAVQLKEEEEPMDTSSVTHTEHYKTLIEAGLPQKVAERLDEIFQTGLVAYVDLDERAIDALREFNEEGALSVLQQFKESDLSHVQNKSAFLCGVMKTYRQREKQGSKVQESTKGPDEAKIKALLERTGYTLDVTTGQRKYGGPPPDSVYSGVQPGIGTEVFVGKIPRDLYEDELVPLFEKAGPIWDLRLMMDPLSGQNRGYAFITFCGKEAAQEAVKLCDSYEIRPGKHLGVCISVANNRLFVGSIPKNKTKENILEEFSKVTEGLVDVILYHQPDDKKKNRGFCFLEYEDHKSAAQARRRLMSGKVKVWGNVVTVEWADPVEEPDPEVMAKVKVLFVRNLATTVTEEILEKSFSEFGKLERVKKLKDYAFVHFEDRGAAVKAMDEMNGKEIEGEEIEIVLAKPPDKKRKERQAARQASRSTAYEDYYYHPPPRMPPPIRGRGRGGGRGGYGYPPDYYGYEDYYDDYYGYDYHDYRGGYEDPYYGYDDGYAVRGRGGGRGGRGAPPPPRGRGAPPPRGRAGYSQRGAPLGPPRGSRGGRGGPAQQQRGRGSRGSRGNRGGNVGGKRKADGYNQPDSKRRQTNNQQNWGSQPIAQQPLQQGGDYSGNYGYNNDNQEFYQDTYGQQWK
B2: E3 ubiquitin-protein ligase TRIM39 (Homo sapiens), Q9HCM9 (parent)
chain: MAETSLLEAGASAASTAAALENLQVEASCSVCLEYLKEPVIIECGHNFCKACITRWWEDLERDFPCPVCRKTSRYRSLRPNRQLGSMVEIAKQLQAVKRKIRDESLCPQHHEALSLFCYEDQEAVCLICAISHTHRAHTVVPLDDATQEYKEKLQKCLEPLEQKLQEITRCKSSEEKKPGELKRLVESRRQQILREFEELHRRLDEEQQVLLSRLEEEEQDILQRLRENAAHLGDKRRDLAHLAAEVEGKCLQSGFEMLKDVKSTLEKNIPRKFGGSLSTICPRDHKALLGLVKEINRCEKVKTMEVTSVSIELEKNFSNFPRQYFALRKILKQLIADVTLDPETAHPNLVLSEDRKSVKFVETRLRDLPDTPRRFTFYPCVLATEGFTSGRHYWEVEVGDKTHWAVGVCRDSVSRKGELTPLPETGYWRVRLWNGDKYAATTTPFTPLHIKVKPKRVGIFLDYEAGTLSFYNVTDRSHIYTFTDTFTEKLWPLFYPGIRAGRKNAAPLTIRPPTDWE
B3: Late cornified envelope protein 1B (Homo sapiens), Q5T7P3 (parent)
chain: MSCQQNQQQCQPPPKCIPKCPPKCLTPRCPPKCPPKCPPVSSCCSVSSGGCCGSSSGGSCGSSSGGCCSSGGGGCCLSHHRRRRSHCHRPQSSGCCSQPSGGSSCCGGGSGQHSGGCC
B4: Notch homolog 2 N-terminal-like protein A (Homo sapiens), Q7Z3S9 (parent)
chain: MCVTYHNGTGYCKCPEGFLGEYCQHRDPCEKNRCQNGGTCVAQAMLGKATCRCASGFTGEDCQYSTSHPCFVSRPCLNGGTCHMLSRDTYECTCQVGFTGKECQWTDACLSHPCANGSTCTTVANQFSCKCLTGFTGQKCETDVNECDIPGHCQHGGTCLNLPGSYQCQCLQGFTGQYCDSLYVPCAPSPCVNGGTCRQTGDFTFECNCLPETVRRGTELWERDREVWNGKEHDEN
partner: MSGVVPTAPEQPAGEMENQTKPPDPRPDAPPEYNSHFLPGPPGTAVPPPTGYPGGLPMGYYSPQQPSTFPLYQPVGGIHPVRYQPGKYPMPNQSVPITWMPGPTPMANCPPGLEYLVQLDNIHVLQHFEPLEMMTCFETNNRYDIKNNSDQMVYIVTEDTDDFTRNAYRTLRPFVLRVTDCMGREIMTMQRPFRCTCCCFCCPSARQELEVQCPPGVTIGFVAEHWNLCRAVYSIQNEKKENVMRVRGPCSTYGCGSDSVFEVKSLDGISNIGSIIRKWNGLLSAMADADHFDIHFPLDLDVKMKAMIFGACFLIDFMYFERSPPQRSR
B5: Myeloid leukemia factor 1 (Homo sapiens), P58340 (parent)
chain: MFRMLNSSFEDDPFFSESILAHRENMRQMIRSFSEPFGRDLLSISDGRGRAHNRRGHNDGEDSLTHTDVSSFQTMDQMVSNMRNYMQKLERNFGQLSVDPNGHSFCSSSVMTYSKIGDEPPKVFQASTQTRRAPGGIKETRKAMRDSDSGLEKMAIGHHIHDRAHVIKKSKNKKTGDEEVNQEFINMNESDAHAFDEEWQSEVLKYKPGRHNLGNTRMRSVGHENPGSRELKRREKPQQSPAIEHGRRSNVLGDKLHIKGSSVKSNKK
partner: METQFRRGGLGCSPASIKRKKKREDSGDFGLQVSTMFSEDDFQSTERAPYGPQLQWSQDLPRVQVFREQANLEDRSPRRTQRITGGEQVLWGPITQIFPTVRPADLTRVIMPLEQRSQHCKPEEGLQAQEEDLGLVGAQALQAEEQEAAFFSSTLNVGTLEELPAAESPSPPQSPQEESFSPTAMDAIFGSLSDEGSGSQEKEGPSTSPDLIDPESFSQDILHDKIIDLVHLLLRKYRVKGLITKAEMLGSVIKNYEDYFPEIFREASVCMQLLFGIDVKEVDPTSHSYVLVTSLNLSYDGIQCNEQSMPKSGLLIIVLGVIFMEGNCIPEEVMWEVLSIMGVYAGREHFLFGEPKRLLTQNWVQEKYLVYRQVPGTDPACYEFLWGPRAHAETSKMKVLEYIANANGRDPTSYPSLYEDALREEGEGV
B6: Zinc finger protein 512B (Homo sapiens), Q96KM6 (parent)
chain: MTDPFCVGGRRLPGSSKSGPGKDGSRKEVRLPMLHDPPKMGMPVVRGGQTVPGQAPLCFDPGSPASDKTEGKKKGRPKAENQALRDIPLSLMNDWKDEFKAHSRVKCPNSGCWLEFPSIYGLKYHYQRCQGGAISDRLAFPCPFCEAAFTSKTQLEKHRIWNHMDRPLPASKPGPISRPVTISRPVGVSKPIGVSKPVTIGKPVGVSKPIGISKPVSVGRPMPVTKAIPVTRPVPVTKPVTVSRPMPVTKAMPVTKPITVTKSVPVTKPVPVTKPITVTKLVTVTKPVPVTKPVTVSRPIVVSKPVTVSRPIAISRHTPPCKMVLLTRSENKAPRATGRNSGKKRAADSLDTCPIPPKQARPENGEYGPSSMGQSSAFQLSADTSSGSLSPGSRPSGGMEALKAAGPASPPEEDPERTKHRRKQKTPKKFTGEQPSISGTFGLKGLVKAEDKARVHRSKKQEGPGPEDARKKVPAAPITVSKEAPAPVAHPAPGGPEEQWQRAIHERGEAVCPTCNVVTRKTLVGLKKHMEVCQKLQDALKCQHCRKQFKSKAGLNYHTMAEHSAKPSDAEASEGGEQEERERLRKVLKQMGRLRCPQEGCGAAFSSLMGYQYHQRRCGKPPCEVDSPSFPCTHCGKTYRSKAGHDYHVRSEHTAPPPEEPTDKSPEAEDPLGVERTPSGRVRRTSAQVAVFHLQEIAEDELARDWTKRRMKDDLVPETARLNYTRPGLPTLNPQLLEAWKNEVKEKGHVNCPNDCCEAIYSSVSGLKAHLASCSKGAHLAGKYRCLLCPKEFSSESGVKYHILKTHAENWFRTSADPPPKHRSQDSLVPKKEKKKNLAGGKKRGRKPKERTPEEPVAKLPPRRDDWPPGCRDKGARGSTGRKVGVSKAPEK

Variants of: B1
Settings: with anm1_human PRMT1, Q99873
Chain of anm1_human PRMT1, Q99873 (Q99873 whole entry, looked up): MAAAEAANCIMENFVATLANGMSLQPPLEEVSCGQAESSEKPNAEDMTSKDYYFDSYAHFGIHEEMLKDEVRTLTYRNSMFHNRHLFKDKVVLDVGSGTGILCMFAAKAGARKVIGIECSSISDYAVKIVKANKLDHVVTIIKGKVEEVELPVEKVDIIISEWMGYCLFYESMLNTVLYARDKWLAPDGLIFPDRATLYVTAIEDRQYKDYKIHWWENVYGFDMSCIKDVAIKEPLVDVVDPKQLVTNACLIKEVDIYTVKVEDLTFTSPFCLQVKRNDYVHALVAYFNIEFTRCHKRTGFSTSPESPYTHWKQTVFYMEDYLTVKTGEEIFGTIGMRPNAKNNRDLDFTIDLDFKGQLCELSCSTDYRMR

Row | Variant | effect of a mutation on the interaction
1 | S530T | with no effect

Variants of: B2
Settings: with znf26_human ZNF26, P17031
Chain of znf26_human ZNF26, P17031 (P17031 whole entry): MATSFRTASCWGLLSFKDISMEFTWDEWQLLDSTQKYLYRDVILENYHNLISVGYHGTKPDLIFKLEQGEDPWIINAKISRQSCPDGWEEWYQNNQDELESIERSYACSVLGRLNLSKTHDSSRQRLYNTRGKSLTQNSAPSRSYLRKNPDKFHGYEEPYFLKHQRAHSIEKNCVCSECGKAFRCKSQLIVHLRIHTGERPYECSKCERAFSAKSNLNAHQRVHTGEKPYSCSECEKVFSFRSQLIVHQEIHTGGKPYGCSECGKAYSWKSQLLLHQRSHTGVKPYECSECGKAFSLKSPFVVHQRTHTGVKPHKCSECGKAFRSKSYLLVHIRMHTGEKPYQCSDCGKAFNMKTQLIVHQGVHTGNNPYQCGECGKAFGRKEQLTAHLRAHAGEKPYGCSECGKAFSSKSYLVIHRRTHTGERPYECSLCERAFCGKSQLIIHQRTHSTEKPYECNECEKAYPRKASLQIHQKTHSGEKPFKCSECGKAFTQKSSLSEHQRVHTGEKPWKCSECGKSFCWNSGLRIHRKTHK

Row | Variant | effect of a mutation on the interaction
2 | L194S | disrupting interaction strength

Variants of: B2
Settings: with ccnc_human CCNC

Row | Variant | effect of a mutation on the interaction
3 | L194S | disrupting interaction strength

Variants of: B2
Settings: with if4a2_human EIF4A2, Q14240
Chain of if4a2_human EIF4A2, Q14240 (Q14240 whole entry): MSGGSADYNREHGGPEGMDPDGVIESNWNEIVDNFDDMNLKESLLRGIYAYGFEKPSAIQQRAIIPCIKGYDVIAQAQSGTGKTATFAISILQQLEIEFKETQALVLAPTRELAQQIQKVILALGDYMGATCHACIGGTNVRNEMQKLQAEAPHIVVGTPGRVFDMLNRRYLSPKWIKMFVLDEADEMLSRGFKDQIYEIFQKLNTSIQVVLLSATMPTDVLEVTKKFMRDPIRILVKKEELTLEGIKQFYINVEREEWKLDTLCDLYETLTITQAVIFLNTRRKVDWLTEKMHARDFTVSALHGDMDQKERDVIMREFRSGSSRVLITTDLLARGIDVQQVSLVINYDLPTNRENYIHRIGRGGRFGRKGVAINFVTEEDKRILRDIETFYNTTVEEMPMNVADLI

Row | Variant | effect of a mutation on the interaction
4 | L194S | disrupting interaction strength

Variants of: B2
Settings: with ub2e2_human UBE2E2, Q96LR5
Chain of ub2e2_human UBE2E2, Q96LR5 (Q96LR5 whole entry): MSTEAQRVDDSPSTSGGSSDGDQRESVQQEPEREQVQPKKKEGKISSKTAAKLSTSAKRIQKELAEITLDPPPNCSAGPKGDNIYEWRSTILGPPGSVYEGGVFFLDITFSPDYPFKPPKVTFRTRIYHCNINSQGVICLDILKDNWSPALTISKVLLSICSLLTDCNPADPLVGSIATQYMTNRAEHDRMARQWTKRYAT

Row | Variant | effect of a mutation on the interaction
5 | L194S | disrupting interaction strength

Variants of: B2
Settings: with ub2d3_human UBE2D3, P61077
Chain of ub2d3_human UBE2D3, P61077 (P61077 whole entry): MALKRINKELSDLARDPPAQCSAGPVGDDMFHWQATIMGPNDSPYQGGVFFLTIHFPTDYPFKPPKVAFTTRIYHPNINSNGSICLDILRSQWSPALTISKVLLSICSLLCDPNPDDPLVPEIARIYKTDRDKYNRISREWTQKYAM

Row | Variant | effect of a mutation on the interaction
6 | L194S | disrupting interaction strength

Variants of: B3
Settings: with rgs20_human RGS20, O76081
Chain of rgs20_human RGS20, O76081 (O76081 whole entry): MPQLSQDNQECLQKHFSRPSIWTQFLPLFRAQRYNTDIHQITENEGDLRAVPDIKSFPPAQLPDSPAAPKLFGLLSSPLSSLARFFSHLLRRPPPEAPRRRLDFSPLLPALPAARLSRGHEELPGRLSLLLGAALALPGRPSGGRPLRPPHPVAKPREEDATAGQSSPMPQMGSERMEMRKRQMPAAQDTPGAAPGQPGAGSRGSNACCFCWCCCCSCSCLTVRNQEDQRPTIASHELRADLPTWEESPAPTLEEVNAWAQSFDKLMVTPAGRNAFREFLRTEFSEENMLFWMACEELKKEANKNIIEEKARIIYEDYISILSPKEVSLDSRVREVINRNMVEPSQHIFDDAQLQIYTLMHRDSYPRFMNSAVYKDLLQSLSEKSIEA

Row | Variant | effect of a mutation on the interaction
7 | R83H | with no effect

Variants of: B3
Settings: with kra32_human KRTAP3-2, Q9BYR7
Chain of kra32_human KRTAP3-2, Q9BYR7 (Q9BYR7 whole entry): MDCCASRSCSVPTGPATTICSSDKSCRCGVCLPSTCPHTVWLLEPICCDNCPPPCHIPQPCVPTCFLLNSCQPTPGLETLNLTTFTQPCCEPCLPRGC

Row | Variant | effect of a mutation on the interaction
8 | R83H | with no effect

Variants of: B3
Settings: with hxa1_human HOXA1, P49639
Chain of hxa1_human HOXA1, P49639 (P49639 whole entry): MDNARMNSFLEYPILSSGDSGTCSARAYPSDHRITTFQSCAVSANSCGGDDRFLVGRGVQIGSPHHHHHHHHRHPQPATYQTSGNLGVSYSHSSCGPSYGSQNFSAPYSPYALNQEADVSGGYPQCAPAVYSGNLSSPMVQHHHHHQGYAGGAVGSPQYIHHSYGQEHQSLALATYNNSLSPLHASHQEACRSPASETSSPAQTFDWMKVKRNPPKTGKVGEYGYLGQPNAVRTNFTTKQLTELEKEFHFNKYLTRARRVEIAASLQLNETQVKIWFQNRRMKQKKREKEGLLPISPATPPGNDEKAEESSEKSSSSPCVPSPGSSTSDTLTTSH

Row | Variant | effect of a mutation on the interaction
9 | G108E | with no effect
10 | H113Q | with no effect
11 | C51Y | with no effect

Variants of: B3
Settings: with nt2na_human NOTCH2NLA

Row | Variant | effect of a mutation on the interaction
12 | G108E | with no effect
13 | H113Q | with no effect
14 | C51Y | with no effect

Variants of: B3
Settings: with kr101_human KRTAP10-1, P60331
Chain of kr101_human KRTAP10-1, P60331 (P60331 whole entry): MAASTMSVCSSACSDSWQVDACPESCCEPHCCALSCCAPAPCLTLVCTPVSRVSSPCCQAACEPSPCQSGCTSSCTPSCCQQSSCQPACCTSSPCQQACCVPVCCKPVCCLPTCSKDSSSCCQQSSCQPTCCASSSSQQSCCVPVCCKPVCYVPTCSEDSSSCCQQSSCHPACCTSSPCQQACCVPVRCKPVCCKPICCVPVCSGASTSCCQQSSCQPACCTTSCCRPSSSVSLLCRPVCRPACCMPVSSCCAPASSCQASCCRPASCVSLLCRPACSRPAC

Row | Variant | effect of a mutation on the interaction
15 | G108E | with no effect
16 | H113Q | with no effect
17 | C51Y | with no effect

Variants of: B3
Settings: with otx1_human OTX1, P32242
Chain of otx1_human OTX1, P32242 (P32242 whole entry): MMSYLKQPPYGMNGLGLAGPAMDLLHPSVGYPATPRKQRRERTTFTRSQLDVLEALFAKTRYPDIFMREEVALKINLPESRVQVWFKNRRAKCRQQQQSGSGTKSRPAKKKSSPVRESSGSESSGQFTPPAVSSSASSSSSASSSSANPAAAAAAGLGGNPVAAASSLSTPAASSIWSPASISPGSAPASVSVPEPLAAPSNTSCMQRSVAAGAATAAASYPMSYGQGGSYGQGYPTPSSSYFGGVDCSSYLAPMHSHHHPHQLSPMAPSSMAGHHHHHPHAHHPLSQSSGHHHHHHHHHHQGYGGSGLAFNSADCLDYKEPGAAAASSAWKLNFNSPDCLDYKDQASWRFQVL

Row | Variant | effect of a mutation on the interaction
18 | G108E | with no effect
19 | H113Q | with no effect
20 | C51Y | with no effect

Variants of: B4
Settings: with pls4_human PLSCR4, Q9NRQ2

Row | Variant | effect of a mutation on the interaction
21 | R74Q | with no effect
22 | A115T | with no effect

Variants of: B5
Settings: with magab_human MAGEA11, P43364

Row | Variant | effect of a mutation on the interaction
23 | P226T | with no effect

Variants of: B6
Settings: with fhl3_human FHL3, Q13643
Chain of fhl3_human FHL3, Q13643 (Q13643 whole entry): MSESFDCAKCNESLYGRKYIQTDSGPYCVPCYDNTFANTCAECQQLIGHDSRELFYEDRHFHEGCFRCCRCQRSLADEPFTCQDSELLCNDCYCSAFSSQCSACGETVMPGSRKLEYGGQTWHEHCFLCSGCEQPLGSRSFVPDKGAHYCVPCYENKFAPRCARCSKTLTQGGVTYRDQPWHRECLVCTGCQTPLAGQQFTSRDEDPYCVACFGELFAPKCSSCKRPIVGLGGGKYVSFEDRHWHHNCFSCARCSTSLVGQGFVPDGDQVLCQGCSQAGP

Row | Variant | effect of a mutation on the interaction
24 | A408T | with no effect

Variants of: B6
Settings: with traf1_human TRAF1, Q13077
Chain of traf1_human TRAF1, Q13077 (Q13077 whole entry): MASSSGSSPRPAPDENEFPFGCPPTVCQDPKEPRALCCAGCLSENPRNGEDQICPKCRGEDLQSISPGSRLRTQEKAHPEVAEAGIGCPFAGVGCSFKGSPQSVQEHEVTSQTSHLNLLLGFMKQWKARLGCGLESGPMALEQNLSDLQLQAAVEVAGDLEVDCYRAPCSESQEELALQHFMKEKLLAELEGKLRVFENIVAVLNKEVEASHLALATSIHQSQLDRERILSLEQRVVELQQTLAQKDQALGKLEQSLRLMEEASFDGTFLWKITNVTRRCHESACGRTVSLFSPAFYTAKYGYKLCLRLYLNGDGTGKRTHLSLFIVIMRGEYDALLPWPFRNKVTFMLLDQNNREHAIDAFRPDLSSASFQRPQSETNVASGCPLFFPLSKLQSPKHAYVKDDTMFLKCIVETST

Row | Variant | effect of a mutation on the interaction
25 | A408T | with no effect
